According to US20260116991A1 (HAINAN SIMCERE ZAIMING PHARMACEUTICAL, published 2026):

Key:
[1] = target: biotinylated labeled human GPC3 protein (produced in-house) (human, UniProt P51654 25-559, limits assumed, biotinylated (Dojindo, Cat. No. LK03); sites not stated); test: ELISA, biotinylated human GPC3 protein
[2] = target: T1, human GPC3 on CHO-K1-human GPC3 cells (CHOK1-hGPC3.2B5) (human, UniProt P51654 25-554); test: FACS, CHOK1-hGPC3.2B5 cells;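 also: flow cytometry of humanized antibodies binding to the cells over one hour in the cold, read as cell mean fluorescence intensity, with EC50 obtained by curve fitting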
T1 construct: whole, on cells

| Binder | OD450 at 0.0004 nM [1] | OD450 at 0.002 nM [1] | OD450 at 0.011 nM [1] | OD450 at 0.056 nM [1] | OD450 at 0.28 nM [1] | OD450 at 1.39 nM [1] | OD450 at 6.94 nM [1] | OD450 at 34.72 nM [1] | EC50 [2] | Max MFI [2] | OD450 at 0.0008 nM [1] | OD450 at 0.004 nM [1] | OD450 at 0.02 nM [1] | OD450 at 0.11 nM [1] | OD450 at 0.53 nM [1] | OD450 at 2.67 nM [1] | OD450 at 13.33 nM [1] | OD450 at 66.66 nM [1] |
| --- | --- | --- | --- | --- | --- | --- | --- | --- | --- | --- | --- | --- | --- | --- | --- | --- | --- | --- |
| hAb006LH3L1d (antibody, human IgG1, V domains shown, Humanized F3.38.7; VH H3 + VL L1d; expressed as human IgG1) VH: EVQLVQSGAEVKKPGSSVKVSCKASGYTFTDYEIHWVRQAPGQGLEWMGAIDPKTGNTAYNQKFMGRVTLTADKSTSTAYMELSSLRSEDTAVYYCTRYFSFAYWGQGTLVTVSS VL: DIVMTQTPLSLPVTPGEPASISCRSSQTFVHSNSNTYLQWYLQKPGQSPQLLIYKVSNRFSGVPDRFSGSGSGTDFTLKISRVEAEDVGVYYCFQGSHVPYTFGQGTKLEIK | 0.058 OD450 | 0.096 OD450 | 0.228 OD450 | 0.59 OD450 | 1.11 OD450 | 1.61 OD450 | 1.33 OD450 | 1.45 OD450 | 1.98 nM | 17600 MFI |  |  |  |  |  |  |  |  |
| hAb003LH3L1a (antibody, human IgG1, V domains shown, Humanized F2.154.1; VH H3 + VL L1a; expressed as human IgG1) VH: EVQLVQSGAEVKKPGSSVKVSCKASGYRFTDYEMHWVRQAPGQGLEWMGTIDPETGNTAYTQKFMDRVTLTADKSTSTAYMELSSLRSEDTAVYYCTRGYSFTYWGQGTLVTVSS VL: DIVMTQTPLSLPVTPGEPASISCRSSQNIVHSDGNTYLQWYLQKPGQSPQLLIFKVSNRFSGVPDRFSGSGSGTDFTLKISRVEAEDVGVYYCFQGSHVPFTFGQGTKLEIK |  |  |  |  |  |  |  |  | 6.02 nM | 2240 MFI | 0.086 OD450 | 0.128 OD450 | 0.423 OD450 | 1.3 OD450 | 2.04 OD450 | 2.13 OD450 | 2.15 OD450 | 2.48 OD450 |
| hAb005LH2L1 (antibody, human IgG1, V domains shown, Humanized F3.54.12; VH H2 + VL L1; expressed as human IgG1) VH: EVQLVQSGAEVKKPGASVKVSCKASGYTFTDYEMHWVRQAPGQGLEWMGAIDPETGNTAYIQKFKGRVTLTTDKSTSTAYMELRSLRSDDTAVYYCTRFYSYSHWGQGTTVTVSS VL: DIVMTQTPLSLPVTPGEPASISCRSSQSLVHSNGNTYLHWYLQKPGQSPQLLIYKVSNRFSGVPDRFSGSGSGTDFTLKISRVEAEDVGVYYCSQNTHVPPTFGGGTKVEIK |  |  |  |  |  |  |  |  | 0.736 nM | 4540 MFI | 0.083 OD450 | 0.185 OD450 | 0.464 OD450 | 0.812 OD450 | 1.01 OD450 | 1.12 OD450 | 1.12 OD450 | 1.16 OD450 |
| hAb003LH3L1b (antibody, human IgG1, V domains shown, Humanized F2.154.1; VH H3 + VL L1b; expressed as human IgG1) VH: EVQLVQSGAEVKKPGSSVKVSCKASGYRFTDYEMHWVRQAPGQGLEWMGTIDPETGNTAYTQKFMDRVTLTADKSTSTAYMELSSLRSEDTAVYYCTRGYSFTYWGQGTLVTVSS VL: DIVMTQTPLSLPVTPGEPASISCRSSQNIVHSNRNTYLQWYLQKPGQSPQLLIFKVSNRFSGVPDRFSGSGSGTDFTLKISRVEAEDVGVYYCFQGSHVPFTFGQGTKLEIK |  |  |  |  |  |  |  |  | 0.647 nM | 4980 MFI | 0.157 OD450 | 0.381 OD450 | 1.08 OD450 | 2 OD450 | 2.54 OD450 | 2.44 OD450 | 2.59 OD450 | 2.61 OD450 |
| hAb007LH1L1c (antibody, human IgG1, V domains shown, Humanized F3.81.19; VH H1 + VL L1c; expressed as human IgG1) VH: EVQLVQSGAEVKKPGSSVKVSCKASGYTFSDYEMHWVRQAPGQGLEWMGTIDPETGNTAYNQKFKGRVTITADKSTSTAYMELSSLRSEDTAVYYCTRPYSLTYWGQGTLVTVSS VL: DIVMTQTPLSLPVTPGEPASISCRSSQSFVHSNADTYLQWYLQKPGQSPQLLIYKVSNRFSGVPDRFSGSGSGTDFTLKISRVEAEDVGVYYCFQGSHVPYTFGQGTKLEIK | 0.052 OD450 | 0.064 OD450 | 0.098 OD450 | 0.25 OD450 | 0.718 OD450 | 1.09 OD450 | 1.45 OD450 | 1.29 OD450 | 4.61 nM | 18200 MFI |  |  |  |  |  |  |  |  |
| hAb007LH1L1 (antibody, human IgG1, V domains shown, Humanized F3.81.19; VH H1 + VL L1; expressed as human IgG1) VH: EVQLVQSGAEVKKPGSSVKVSCKASGYTFSDYEMHWVRQAPGQGLEWMGTIDPETGNTAYNQKFKGRVTITADKSTSTAYMELSSLRSEDTAVYYCTRPYSLTYWGQGTLVTVSS VL: DIVMTQTPLSLPVTPGEPASISCRSSQSFVHSNGDTYLQWYLQKPGQSPQLLIYKVSNRFSGVPDRFSGSGSGTDFTLKISRVEAEDVGVYYCFQGSHVPYTFGQGTKLEIK |  |  |  |  |  |  |  |  | 2.02 nM | 6440 MFI | 0.109 OD450 | 0.17 OD450 | 0.496 OD450 | 1.36 OD450 | 2.14 OD450 | 2.42 OD450 | 2.38 OD450 | 2.43 OD450 |
| hAb007LH1L1e (antibody, human IgG1, V domains shown, Humanized F3.81.19; VH H1 + VL L1e; expressed as human IgG1) VH: EVQLVQSGAEVKKPGSSVKVSCKASGYTFSDYEMHWVRQAPGQGLEWMGTIDPETGNTAYNQKFKGRVTITADKSTSTAYMELSSLRSEDTAVYYCTRPYSLTYWGQGTLVTVSS VL: DIVMTQTPLSLPVTPGEPASISCRSSQSFVHSNVDTYLQWYLQKPGQSPQLLIYKVSNRFSGVPDRFSGSGSGTDFTLKISRVEAEDVGVYYCFQGSHVPYTFGQGTKLEIK | 0.049 OD450 | 0.05 OD450 | 0.058 OD450 | 0.104 OD450 | 0.248 OD450 | 0.732 OD450 | 1.17 OD450 | 0.921 OD450 | 10.4 nM | 15000 MFI |  |  |  |  |  |  |  |  |
| hAb006LH3L1e (antibody, human IgG1, V domains shown, Humanized F3.38.7; VH H3 + VL L1e; expressed as human IgG1) VH: EVQLVQSGAEVKKPGSSVKVSCKASGYTFTDYEIHWVRQAPGQGLEWMGAIDPKTGNTAYNQKFMGRVTLTADKSTSTAYMELSSLRSEDTAVYYCTRYFSFAYWGQGTLVTVSS VL: DIVMTQTPLSLPVTPGEPASISCRSSQTFVHSNVNTYLQWYLQKPGQSPQLLIYKVSNRFSGVPDRFSGSGSGTDFTLKISRVEAEDVGVYYCFQGSHVPYTFGQGTKLEIK | 0.06 OD450 | 0.085 OD450 | 0.187 OD450 | 0.592 OD450 | 1.23 OD450 | 1.36 OD450 | 1.44 OD450 | 1.32 OD450 | 2.06 nM | 15800 MFI |  |  |  |  |  |  |  |  |
| hAb007LH1L1d (antibody, human IgG1, V domains shown, Humanized F3.81.19; VH H1 + VL L1d; expressed as human IgG1) VH: EVQLVQSGAEVKKPGSSVKVSCKASGYTFSDYEMHWVRQAPGQGLEWMGTIDPETGNTAYNQKFKGRVTITADKSTSTAYMELSSLRSEDTAVYYCTRPYSLTYWGQGTLVTVSS VL: DIVMTQTPLSLPVTPGEPASISCRSSQSFVHSNSDTYLQWYLQKPGQSPQLLIYKVSNRFSGVPDRFSGSGSGTDFTLKISRVEAEDVGVYYCFQGSHVPYTFGQGTKLEIK | 0.059 OD450 | 0.057 OD450 | 0.101 OD450 | 0.16 OD450 | 0.503 OD450 | 1.1 OD450 | 1.34 OD450 | 1.31 OD450 | 6.28 nM | 18200 MFI |  |  |  |  |  |  |  |  |
| hAb007LH1L1b (antibody, human IgG1, V domains shown, Humanized F3.81.19; VH H1 + VL L1b; expressed as human IgG1) VH: EVQLVQSGAEVKKPGSSVKVSCKASGYTFSDYEMHWVRQAPGQGLEWMGTIDPETGNTAYNQKFKGRVTITADKSTSTAYMELSSLRSEDTAVYYCTRPYSLTYWGQGTLVTVSS VL: DIVMTQTPLSLPVTPGEPASISCRSSQSFVHSNRDTYLQWYLQKPGQSPQLLIYKVSNRFSGVPDRFSGSGSGTDFTLKISRVEAEDVGVYYCFQGSHVPYTFGQGTKLEIK |  |  |  |  |  |  |  |  | 6.47 nM | 6070 MFI | 0.099 OD450 | 0.137 OD450 | 0.341 OD450 | 1.07 OD450 | 1.98 OD450 | 2.34 OD450 | 2.38 OD450 | 2.46 OD450 |
| hAb007LH2L1b (antibody, human IgG1, V domains shown, Humanized F3.81.19; VH H2 + VL L1b; expressed as human IgG1) VH: EVQLVQSGAEVKKPGSSVKVSCKASGYTFTDYEMHWVRQAPGQGLEWMGTIDPETGNTAYNQKFKGRVTITADKSTSTAYMELSSLRSEDTAVYYCTRPYSLTYWGQGTLVTVSS VL: DIVMTQTPLSLPVTPGEPASISCRSSQSFVHSNRDTYLQWYLQKPGQSPQLLIYKVSNRFSGVPDRFSGSGSGTDFTLKISRVEAEDVGVYYCFQGSHVPYTFGQGTKLEIK |  |  |  |  |  |  |  |  | 6.16 nM | 6040 MFI | 0.099 OD450 | 0.133 OD450 | 0.297 OD450 | 0.924 OD450 | 1.84 OD450 | 2.2 OD450 | 2.33 OD450 | 2.25 OD450 |
| hAb007LH3L1b (antibody, human IgG1, V domains shown, Humanized F3.81.19; VH H3 + VL L1b; expressed as human IgG1) VH: EVQLVQSGAEVKKPGSSVKVSCKASGYTFTDYEMHWVRQAPGQGLEWMGTIDPETGNTAYNQKFKGRVTLTADKSTSTAYMELSSLRSEDTAVYYCTRPYSLTYWGQGTLVTVSS VL: DIVMTQTPLSLPVTPGEPASISCRSSQSFVHSNRDTYLQWYLQKPGQSPQLLIYKVSNRFSGVPDRFSGSGSGTDFTLKISRVEAEDVGVYYCFQGSHVPYTFGQGTKLEIK |  |  |  |  |  |  |  |  | 7.33 nM | 6240 MFI | 0.088 OD450 | 0.112 OD450 | 0.225 OD450 | 0.784 OD450 | 1.8 OD450 | 2.21 OD450 | 2.25 OD450 | 2.29 OD450 |
| hAb007LH3L1 (antibody, human IgG1, V domains shown, Humanized F3.81.19; VH H3 + VL L1; expressed as human IgG1) VH: EVQLVQSGAEVKKPGSSVKVSCKASGYTFTDYEMHWVRQAPGQGLEWMGTIDPETGNTAYNQKFKGRVTLTADKSTSTAYMELSSLRSEDTAVYYCTRPYSLTYWGQGTLVTVSS VL: DIVMTQTPLSLPVTPGEPASISCRSSQSFVHSNGDTYLQWYLQKPGQSPQLLIYKVSNRFSGVPDRFSGSGSGTDFTLKISRVEAEDVGVYYCFQGSHVPYTFGQGTKLEIK |  |  |  |  |  |  |  |  | 6.98 nM | 6760 MFI | 0.097 OD450 | 0.133 OD450 | 0.323 OD450 | 0.959 OD450 | 1.78 OD450 | 2.11 OD450 | 2.16 OD450 | 2.19 OD450 |
